The target in assay [1] is T1, pSer13-Cdc37 (human Cdc37 expressed in Sf9 cells, phosphorylated on Ser13) (human, UniProt Q16543 1-378, phosphoserine at 13).
T1 construct: human Cdc37 (p50), phosphorylated on Ser13 in the insect cells; also called p50; Sf9-expressed Cdc37; source: Sf9 cells, baculovirus; purified in the C-K and H-C-K complexes with His6-Cdk4; free Cdc37 obtained as a by-product of the H-C-K complex purification
T1 sequence (looked up): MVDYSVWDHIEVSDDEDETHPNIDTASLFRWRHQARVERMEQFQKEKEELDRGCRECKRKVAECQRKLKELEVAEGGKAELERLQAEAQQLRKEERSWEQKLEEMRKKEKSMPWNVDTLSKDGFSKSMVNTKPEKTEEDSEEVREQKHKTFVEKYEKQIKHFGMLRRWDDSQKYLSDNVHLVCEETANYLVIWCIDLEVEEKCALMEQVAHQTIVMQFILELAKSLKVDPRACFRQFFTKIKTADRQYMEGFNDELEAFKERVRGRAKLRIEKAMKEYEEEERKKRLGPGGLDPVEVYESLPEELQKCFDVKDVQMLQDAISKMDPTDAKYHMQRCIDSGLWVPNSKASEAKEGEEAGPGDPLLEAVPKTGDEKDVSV
Briefly: co-purification (His6 affinity); human Cdc37 and N-terminally His6-tagged Cdk4 co-expressed in Sf9 cells by baculovirus; complexes purified via the His6 tag on Cdk4; Coomassie-stained SDS-PAGE. Conditions: partners not purified.

The target of assay [2] is T2, Cdc37 (human, Sf9-expressed) dephosphorylated with λ-phosphatase (human, UniProt Q16543 1-378).
T2 construct: human Cdc37 (p50), Ser13 dephosphorylated in vitro by λPP; Same construct as m2 after treatment with λPP; also called dephosphorylated Cdc37; Cdc37 in dephosphorylated C-K or H-C-K complex; source: Sf9 cells, baculovirus; purified in the C-K and H-C-K complexes, then dephosphorylated with λ-phosphatase (NEB)
T2 sequence (looked up): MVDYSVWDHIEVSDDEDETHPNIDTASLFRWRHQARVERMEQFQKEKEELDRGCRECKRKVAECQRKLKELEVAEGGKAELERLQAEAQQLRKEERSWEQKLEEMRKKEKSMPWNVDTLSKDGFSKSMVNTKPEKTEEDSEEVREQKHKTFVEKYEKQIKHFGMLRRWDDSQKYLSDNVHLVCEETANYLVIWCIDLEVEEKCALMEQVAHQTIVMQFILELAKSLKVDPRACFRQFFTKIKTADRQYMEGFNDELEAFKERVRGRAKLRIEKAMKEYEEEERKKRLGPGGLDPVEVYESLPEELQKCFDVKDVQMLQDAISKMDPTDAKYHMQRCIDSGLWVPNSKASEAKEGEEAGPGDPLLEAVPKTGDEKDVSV
Briefly: SEC; purified C-K complex incubated with or without λPP (1:10) for 1 hr at room temperature; Superose 6 HR10/30 in 50 mM Tris pH 7.5, 10 mM KCl, 10 mM MgCl2, 150 mM NaCl, 1 mM EDTA, 3 mM DTT; 1 ml fractions probed by Western blot. Conditions: both partners purified. (Size exclusion chromatography separates by hydrodynamic size, large species first.)

For assay [3], the target named is T3, full-length human Hsp90α (human, UniProt P07900 1-732).
T3 construct: human Hsp90α
Briefly: pull-down; GST-PP5 on glutathione Sepharose with Cdc37 or CK2-phosphorylated Cdc37 preincubated with Hsp90α for 1 hr; 4°C, 2 hr; 50 mM HEPES pH 7.5, 150 mM NaCl, 0.1% NP40, BSA; PP5 dephosphorylates Cdc37 during the incubation. As to conditions: both partners purified.

B1: His6-tagged Cdk4 (enzyme, human, UniProt P11802 1-303, looked up)
chain: MATSRYEPVAEIGVGAYGTVYKARDPHSGHFVALKSVRVPNGGGGGGGLPISTVREVALLRRLEAFEHPNVVRLMDVCATSRTDREIKVTLVFEHVDQDLRTYLDKAPPPGLPAETIKDLMRQFLRGLDFLHANCIVHRDLKPENILVTSGGTVKLADFGLARIYSYQMALTPVVVTLWYRAPEVLLQSTYATPVDMWSVGCIFAEMFRRKPLFCGNSEADQLGKIFDLIGLPPEDDWPRDVSLPRGAFPPRGPRPVQSVVPEMEESGAQLLLEMLTFNPHKRISAFRALQHSYLHKDEGNPE
notes: Cdk4, Cdc37/Hsp90-dependent protein kinase; also called K (in C-K and H-C-K); source: Sf9 cells, baculovirus, co-expressed with human Cdc37; purified via the His6 tag as C-K and H-C-K complexes; not shown: His6, N-terminal, kept
Regarding B1, the binding result in assay [1] and in assay [2] was “binds” in each case.

B2: pSer13-Cdc37 (E. coli-expressed Cdc37 phosphorylated in vitro with CK2) (natural protein, human, UniProt Q16543 1-378, looked up)
chain: MVDYSVWDHIEVSDDEDETHPNIDTASLFRWRHQARVERMEQFQKEKEELDRGCRECKRKVAECQRKLKELEVAEGGKAELERLQAEAQQLRKEERSWEQKLEEMRKKEKSMPWNVDTLSKDGFSKSMVNTKPEKTEEDSEEVREQKHKTFVEKYEKQIKHFGMLRRWDDSQKYLSDNVHLVCEETANYLVIWCIDLEVEEKCALMEQVAHQTIVMQFILELAKSLKVDPRACFRQFFTKIKTADRQYMEGFNDELEAFKERVRGRAKLRIEKAMKEYEEEERKKRLGPGGLDPVEVYESLPEELQKCFDVKDVQMLQDAISKMDPTDAKYHMQRCIDSGLWVPNSKASEAKEGEEAGPGDPLLEAVPKTGDEKDVSV
modifications: phosphoserine at 13
notes: human Cdc37 (p50), phosphorylated on Ser13 by CK2 in vitro; also called phosphorylated Cdc37; pCdc37; source: E. coli, purified, phosphorylated in vitro with CK2 (Promega), further purified on Resource Q
As to B2, the binding result in assay [3] is given as “binds”.

B3: Cdc37 (E. coli-expressed, unphosphorylated) (natural protein, human, UniProt Q16543 1-378, looked up)
chain: MVDYSVWDHIEVSDDEDETHPNIDTASLFRWRHQARVERMEQFQKEKEELDRGCRECKRKVAECQRKLKELEVAEGGKAELERLQAEAQQLRKEERSWEQKLEEMRKKEKSMPWNVDTLSKDGFSKSMVNTKPEKTEEDSEEVREQKHKTFVEKYEKQIKHFGMLRRWDDSQKYLSDNVHLVCEETANYLVIWCIDLEVEEKCALMEQVAHQTIVMQFILELAKSLKVDPRACFRQFFTKIKTADRQYMEGFNDELEAFKERVRGRAKLRIEKAMKEYEEEERKKRLGPGGLDPVEVYESLPEELQKCFDVKDVQMLQDAISKMDPTDAKYHMQRCIDSGLWVPNSKASEAKEGEEAGPGDPLLEAVPKTGDEKDVSV
notes: human Cdc37 (p50), not phosphorylated; also called WT-Cdc37; nonphosphorylated Cdc37; source: E. coli, purified
With B3, the binding result in assay [3] is listed as “binds”.

The values are drawn from paper PMC2568865, “Hsp90-Dependent Activation of Protein Kinases Is Regulated by Chaperone-Targeted Dephosphorylation of Cdc37” (Molecular Cell, 2008).
